Changes are numbered by the printed parent chain.
T1: hTSLPR-ECTO-His (human)
T1 chain: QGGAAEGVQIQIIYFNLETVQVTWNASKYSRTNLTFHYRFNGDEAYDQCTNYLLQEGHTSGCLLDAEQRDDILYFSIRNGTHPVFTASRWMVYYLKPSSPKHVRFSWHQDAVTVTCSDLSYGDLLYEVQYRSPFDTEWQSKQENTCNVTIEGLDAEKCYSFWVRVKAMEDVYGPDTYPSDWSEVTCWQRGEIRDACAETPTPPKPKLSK

T2: human TSLPR on Ba/F3-hTSLPR-hIL7Ra cells (human, UniProt Q9HC73 23-371)
T2 sequence (looked up): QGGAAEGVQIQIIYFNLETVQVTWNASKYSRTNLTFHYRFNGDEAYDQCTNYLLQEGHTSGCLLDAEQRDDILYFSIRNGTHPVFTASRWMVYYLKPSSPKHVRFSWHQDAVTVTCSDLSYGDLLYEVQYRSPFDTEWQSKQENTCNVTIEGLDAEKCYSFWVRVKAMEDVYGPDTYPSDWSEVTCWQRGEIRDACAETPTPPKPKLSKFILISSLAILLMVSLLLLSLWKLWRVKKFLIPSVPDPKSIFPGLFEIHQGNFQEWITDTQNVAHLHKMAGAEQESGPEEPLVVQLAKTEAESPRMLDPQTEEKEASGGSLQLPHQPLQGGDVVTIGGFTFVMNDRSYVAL

B1: mouse antibody 49A5 (antibody, mouse IgG1, V domains shown)
VH: QVQLKQSGPGLVQPSQSLSITCTVSGFSLTTYGVHWVRQSPGKGLEWLGVIWRGGNTAYNPAFMSRLSITKDNSKSQVFFKMNSLQADDTAIYHCAKKSYYGYHAMGYWGQGTSVTVSS
VL: DIQMTQTTSSLSASLGDRVTINCRASQDISNYLNWYQQNPDGTVKLLIYYTSRLHSGVPSRFSGSGSGTDYSLTISNLEQEDIATYFCQQANTLPWTFGGGTKLEIKR
notes: Mouse IgG1/kappa from hybridoma; also called m49A5; LB55.49A5.2F9
B2: mouse antibody 4G8 (antibody, mouse IgG1, V domains shown)
VH: QVQLKQSGPGLVQPSQSLSITCTVSGFSLTIYGLHWVRQSPGKGLEWLGVIWRGGSTDYNAAFMSRLRITKDNSKSQVFFKMDSLQADDTAIYYCAKPYYDYDGNWYFDVWGAGTTVTVSS
VL: DIVMTQSQKFMSTSVGDRVSVTCKASQNVGTNVAWYQKKSGQSPKPLIYSASSHCSEVPDRFTGSGSGTDFTLTINNVQSEDLAEYFCQQYNRYPLTFGTGTKLEVRR
notes: Mouse IgG1/kappa from hybridoma; also called m4G8; LB55.4G8.2A6
B3: mouse anti-human TSLPR antibody 70E8 (antibody, mouse IgG1, V domains shown)
VH: DVQLQESGPDLVKPSQSLSLTCTVTNYSITSGYSWPWIRQFPGNKLEWLGYIHSSGRTNYNPSLKSRISITRDTSKNQFFLQLNSVTPEDTATYYCARSQLGLVFFAYWGQGTLVTVSA
VL: DIVMTQSQKFMSTSVGDRVSVTCKASQSVGANVAWYQQIPGHSPKVLIYSASYRFSGVPDRFTGSGSGTDFTLTISNVQSEDLAEYFCQQYNSYPYTFGGGTKLEIRR
notes: Mouse IgG1/kappa from hybridoma; also called m70E8; LB55.70E8.1A8
B4: mouse antibody 54A11 (antibody, mouse IgG2a, V domains shown)
VH: EVQLQQSGPELVKPRASVKISCKASGYSFTGYYIHWVKQSHVKSLEWIGRINPYNGATIYNPNFKDKASLTVDKSSSTAFMEVHSLTSEDSAVYYCARSYGYVNYFDYWGQGTTLTVSS
VL: EIVLTQSPATLSVTPGDSVSLSCRASQSISNNLHWYHQKSHESPRLLIKFGFQSISGIPSRFSGSGSGTDFTLSINSVETEDFGMYFCQQTNSWLTFGAGTKLELKR
notes: Mouse IgG2a/kappa from hybridoma; also called m54A11; LB55.54A11.3D6
B5: mouse antibody 54C11 (antibody, mouse IgG2a, V domains shown)
VH: QVQLQQSGPEVVRPGVSVKISCKGSGFTFTDYAIHWVRQSHAKSLEWIGIIRPSNGNTNCDQKFKDKATMTVDKSSSTAYLDLARLTSEDSAIYYCSRSRVWGGSLAYWGQGTLVTVSA
VL: DIVMTQSQKFMSTSVGDRVSVTCKASQNVGTNIAWYQQKPGQSPEALIYSASYRYSGVPDRFTGSGSGTDFTLTITNVQSEDLAEYFCQQYKSYPWTFGGGTKLEIKR
notes: Mouse IgG2a/kappa from hybridoma; also called m54C11; LB55.54C11.3G11
B6: mouse antibody 61C11 (antibody, mouse IgG2a, V domains shown)
VH: QAYLQQSGAELVRSGASVKMSCKASGYTFTSYNLHWIKLTPGQGLEWIGYIYPGLNGTLYNQKFRGKATLTADTSSSTAYMQISSLTSEDSAVYFCARSDYGKAWFAYWGRGTLVTVSA
VL: DILLTQSPAILSVSPGERVSFSCRASQSIATKIHWYQQRTDHSPRLLIQLGSESISGIPSRFSGSGSGTDFTFTINSVESEDIAVYYCQQSNRYPYTFGGGTKLEVKR
notes: Mouse IgG2a/kappa from hybridoma; also called m61C11; LB55.61C11.2B1
B7: chimeric anti-human TSLPR 13H5 antibody (antibody, V domains shown)
VH: QVLLKQSGPSLVQPSQSLSITCTVSGFSLSRYGVHWVRQSPGKGLEWLGVIWRSGSTDYNAAFMSRLSITQDNSKSQVFFNMNSLQSDDSAIYYCAKKAFYVMDYWGQGTSVTVSS
VL: B1 VL with N22S, N31I, N39K, D70N, Y71F, S76T, Q80E, A91G
notes: also called chim 13H5; Chimeric 13H5; not shown: human IgG1 heavy chain constant region (CH1-hinge-CH2-CH3); human kappa light chain constant domain (CL domain)
B8: rat anti-human TSLPR antibody 18B3 (antibody, V domains shown)
VH: EVQLVESGGGLVQPGRSLRLSCVASGFTFNNYWMTWVRQAPGKGLEWVASITDTSGRTYYPDSVKGRFTISRDHAKSTLYLQMNSLRPEDTATYYCTKTLGGIPRDWGQGVMVTVSS
VL: NIQLTQSPSLLSASVGDRVTLSCKGSQNINNYLAWYQQKLGEAPKLLIFKTNILQTGIPLRFSGSGSGTDYTLTISSLHCEDLATYYCYQFNNGFTFGPGTKLELKR
notes: Rat monoclonal antibody; also called r18B3; LB1.18B3

Molecular target: T3, cTSLPR-Ig (cynomolgus monkey)
T3 construct: also called cyTSLP R-hIg P749; Mam-Trans[FlagPreProTrypsin]DELTA2_NHP[Ig]
Test: ELISA, plate coated with TSLPR 50 ng/well, HRP goat anti-mouse detection
Protocol: (§1) The ELISA measures the EC50 of certain mouse anti-TSLPR antibodies generated according to Example 2 are reported on Table 4. The antibodies were purified from hybridoma supernatants, and his-hTSLPR or cTSLPR-Ig was used to determine binding affinity.
(§2) Coating of plates was performed as follows: TSLPR (50 ng per well) in PBS was incubated at 4° C. overnight. Plates were washed with 1 cycle (3 washes/cycle) on a Molecular Devices plate washer. Antibody was then titrated across a row of eight wells in the range of 3000 ng/mL to […] using serial 3-fold dilutions and incubated for 60 min. at 25° C. Plates were washed for 1 cycle, HRP-goat anti-mouse) (1:2,000 dilution) was added at 0.05 mL/well and incubated for 60 min at 25° C. Plates were washed for 1 cycles. ABTS substrate was added at 0.05 mL/well and incubated 10 min at 25 C. Plates read at) or A_{405 nm}. [0223]

| Binder | EC50 [µg/mL] |
| --- | --- |
| B1 | 0.0059 |
| B2 | 0.081 |
| B3 | 0.958 |
| B4 | 0.0075 |
| B5 | 0.153 |
| B6 | 0.26 |

Molecular target: T1, hTSLPR-ECTO-His
Test: as above
Protocol: as §1, §2

| Binder | EC50 [µg/mL] |
| --- | --- |
| B1 | 0.0417 |
| B2 | 0.0059 |
| B4 | 0.0458 |
| B5 | 0.0059 |
| B6 | 0.026 |

Molecular target: T3, cTSLPR-Ig
Test: SPR BIAcore T100, cyTSLPR-hIg amine-coupled on CM5, antibody as analyte, bivalent analyte model, n = 2
Protocol: The kinetic binding activities of the mouse anti human TSLPR antibody 13H5, chimeric anti-human TSLPR 13H5 antibody, rat anti-human TSLPR antibody 18B3, and mouse anti-human TSLPR antibody 70E8 against both human (hu) and cynomolgus monkey (cyno) TSLPR were measured by surface plasmon resonance using a BIAcore T100 system (BIAcore AB, Upsalla, Sweden). Approximately 70RUs of […] were immobilized via amine coupling chemistry onto a Sensor Chip CM5 (Research grade, BR-1006-68). HBS-EP buffer (BR-1006-69) was used as the running buffer with a flow rate of 30 μL/min. Antibodies at varying concentrations ranging from 0.01 to 600 nM were injected over the immobilized hu or cyno TSLP surfaces at a flow rate of 30 μL/min. Following each injection cycle the CM5 chip surface was regenerated using a series of solutions (10 mM Glycine pH 1.5 and 25 mM NaOH respectively) at a flow rate of 75 μL/min.
Background subtraction binding sensorgrams were used for analyzing the rate constant of association (ka) and dissociation (kd), and the equilibrium dissociation constant KD. The resulting data sets shown in Table 5 were fitted with a bivalent analyte model using the BlAevaluation software (version 1.0).

| Binder | Kd [nM] | koff [s⁻¹] | kon [M⁻¹ s⁻¹] |
| --- | --- | --- | --- |
| B7 | 0.374 | 0.000172 | 460000 |
| B8 | 10.1 | 0.0078 | 770000 |

Molecular target: T2, human TSLPR on Ba/F3-hTSLPR-hIL7Ra cells
Test: cell-based or functional assay

| Binder | Avg IC50, Ba/F3-huTSLPR proliferation [µg/mL] | IC50 Assay I, Ba/F3-huTSLPR proliferation [µg/mL] | IC50 Assay II, Ba/F3-huTSLPR proliferation [µg/mL] | IC50 Assay III, Ba/F3-huTSLPR proliferation [µg/mL] |
| --- | --- | --- | --- | --- |
| B1 | 0.127 | 0.143 | 0.108 | 0.131 |
| B2 | 0.262 | 0.292 | 0.202 | 0.291 |
| B3 | 0.0446 | 0.0442 | 0.0489 | 0.0407 |
| B8 | 0.304 | 0.318 | 0.259 | 0.335 |
| B4 | 0.178 | 0.211 | 0.132 | 0.191 |
| B5 | 0.0203 | 0.0195 | 0.0188 | 0.0227 |
| B6 | 0.162 | 0.174 | 0.139 | 0.172 |

Molecular target: cynomolgus TSLPR on Ba/F3-cTSLPR-cIL7Ra cells (cynomolgus monkey)
Test: cell-based or functional assay

| Binder | Avg IC50, Ba/F3-cyTSLPR proliferation [µg/mL] | IC50 Assay I, Ba/F3-cyTSLPR proliferation [µg/mL] | IC50 Assay II, Ba/F3-cyTSLPR proliferation [µg/mL] | IC50 Assay III, Ba/F3-cyTSLPR proliferation [µg/mL] |
| --- | --- | --- | --- | --- |
| B1 | 0.231 | 0.202 | 0.246 | 0.246 |
| B3 | > 50 | ~55 | ~90 | ~90 |
| B4 | 0.138 | 0.125 | 0.153 | 0.137 |
| B6 | > 10 | ~13 | ~18 | ~15 |

Source: US20110020369A1 (SCHERING, published 2011)
